Experimental data reported in paper PMC11098114 (Proceedings of the National Academy of Sciences of the …, 2024).

Target: the molecule itself
Assay: SEC

Row | Protein | binding result
1 | 3×Ala-MxEnc (natural protein, Myxococcus xanthus) MPDFLGHAENPLREEEWARLNETVIQVARRSLVGRRILDIYGPLGAGVQTVPYDEFQGVSPGAVDIVGEQETAMVFTDARKFKTIPIIYKDFLLHWRDIEAARTHNMPLDVSAAAGAAALCAQQEDELIFYGDARLGYEGLMTANGRLTVPLGDWTSPGGGFQAIVEATRKLNEQGHFGPYAVVLSPRLYSQLHRIYEAAAVLEIETIRQLASDGVYQSNRLRGESGVVVSTGRENMDLAVSMDMVAAYLGASRMNHPFRVLEALLLRIKHPDAICTLEGAGATERR | binds
2 | 3×Asp-MxEnc (natural protein, Myxococcus xanthus) MPDFLGHAENPLREEEWARLNETVIQVARRSLVGRRILDIYGPLGAGVQTVPYDEFQGVSPGAVDIVGEQETAMVFTDARKFKTIPIIYKDFLLHWRDIEAARTHNMPLDVSAAAGAAALCAQQEDELIFYGDARLGYEGLMTANGRLTVPLGDWTSPGGGFQAIVEATRKLNEQGHFGPYAVVLSPRLYSQLHRIYEDDDVLEIETIRQLASDGVYQSNRLRGESGVVVSTGRENMDLAVSMDMVAAYLGASRMNHPFRVLEALLLRIKHPDAICTLEGAGATERR | binds
